Measurements: paper PMC12816671

Columns and labels:
[1] = target: Ku70/80 full length (Homo sapiens, UniProt P12956;P13010 1-609;1-732); experiment: EMSA; SAP EMSA: 105 mM KCl (400 bp) or 46 mM KCl (153 bp), 3 mM Tris-HCl pH 7.5, 0.1 mM EDTA, 3-4% glycerol, 15 min room temp, agarose (0.8% or 1.5%); Ku70/80 EMSA: 5; conditions: protein: recombinant; copies: 1;1
[2] = target: Ku70 SAP domain WT (Homo sapiens, UniProt P12956 539-609); experiment: EMSA; 46 mM KCl; preferred over nucleosome; SAP EMSA: 105 mM KCl (400 bp) or 46 mM KCl (153 bp), 3 mM Tris-HCl pH 7.5, 0.1 mM EDTA, 3-4% glycerol, 15 min room temp, agarose (0.8% or 1.5%); Ku70/80 EMSA: 5; conditions: protein: recombinant; tags: none (His14-SUMObd cleaved)
[3] = target: Ku70/80-dSAP (Homo sapiens, UniProt P12956;P13010 1-544;1-732); experiment: EMSA; higher shift than full length, multiple loading; SAP EMSA: 105 mM KCl (400 bp) or 46 mM KCl (153 bp), 3 mM Tris-HCl pH 7.5, 0.1 mM EDTA, 3-4% glycerol, 15 min room temp, agarose (0.8% or 1.5%); Ku70/80 EMSA: 5; conditions: protein: recombinant; copies: 1;1

Measured: binding result

Sequence of Ku70 SAP domain WT (P12956 539-609): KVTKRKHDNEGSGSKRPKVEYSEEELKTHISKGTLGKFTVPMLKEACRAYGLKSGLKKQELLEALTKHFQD
Sequence of Ku70/80 full length (P12956 whole entry, chain 1 of 2, the tested form may be a part): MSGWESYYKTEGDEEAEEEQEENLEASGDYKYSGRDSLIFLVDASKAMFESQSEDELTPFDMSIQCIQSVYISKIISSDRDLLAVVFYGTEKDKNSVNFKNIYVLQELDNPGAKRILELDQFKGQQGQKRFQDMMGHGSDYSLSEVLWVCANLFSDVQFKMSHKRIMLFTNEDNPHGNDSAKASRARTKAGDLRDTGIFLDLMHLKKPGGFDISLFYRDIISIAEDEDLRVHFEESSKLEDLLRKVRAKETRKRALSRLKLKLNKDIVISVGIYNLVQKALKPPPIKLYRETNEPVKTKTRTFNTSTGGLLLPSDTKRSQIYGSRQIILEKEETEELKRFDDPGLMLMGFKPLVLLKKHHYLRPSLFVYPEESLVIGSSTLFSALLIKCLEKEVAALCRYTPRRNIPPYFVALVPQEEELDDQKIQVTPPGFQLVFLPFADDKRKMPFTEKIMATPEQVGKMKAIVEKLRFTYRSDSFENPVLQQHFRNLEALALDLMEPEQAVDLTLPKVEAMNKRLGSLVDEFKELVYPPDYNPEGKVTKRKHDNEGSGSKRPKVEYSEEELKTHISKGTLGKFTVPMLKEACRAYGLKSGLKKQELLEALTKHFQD
Sequence of Ku70/80 full length (P13010 whole entry, chain 2 of 2, the tested form may be a part): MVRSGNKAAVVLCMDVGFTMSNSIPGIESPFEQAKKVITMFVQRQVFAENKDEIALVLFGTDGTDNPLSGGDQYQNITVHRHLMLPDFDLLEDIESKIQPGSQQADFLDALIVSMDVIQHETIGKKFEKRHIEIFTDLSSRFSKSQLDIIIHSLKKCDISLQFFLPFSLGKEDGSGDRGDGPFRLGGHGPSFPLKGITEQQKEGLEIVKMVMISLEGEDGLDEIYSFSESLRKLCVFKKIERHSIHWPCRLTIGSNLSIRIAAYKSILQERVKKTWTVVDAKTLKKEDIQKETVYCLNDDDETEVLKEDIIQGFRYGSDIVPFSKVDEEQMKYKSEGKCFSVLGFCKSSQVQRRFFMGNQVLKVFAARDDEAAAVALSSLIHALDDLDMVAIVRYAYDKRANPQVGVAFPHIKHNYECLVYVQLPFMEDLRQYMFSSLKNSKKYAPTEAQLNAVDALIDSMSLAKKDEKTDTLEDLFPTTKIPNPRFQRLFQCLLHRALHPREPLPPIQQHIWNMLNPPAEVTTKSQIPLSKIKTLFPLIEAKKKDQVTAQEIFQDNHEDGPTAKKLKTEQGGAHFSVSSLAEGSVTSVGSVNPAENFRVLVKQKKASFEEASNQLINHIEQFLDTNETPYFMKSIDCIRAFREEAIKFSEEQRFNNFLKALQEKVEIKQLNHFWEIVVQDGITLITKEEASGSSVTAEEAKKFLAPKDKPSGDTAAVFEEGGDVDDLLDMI
Sequence of Ku70/80-dSAP (P12956 1-544, chain 1 of 2): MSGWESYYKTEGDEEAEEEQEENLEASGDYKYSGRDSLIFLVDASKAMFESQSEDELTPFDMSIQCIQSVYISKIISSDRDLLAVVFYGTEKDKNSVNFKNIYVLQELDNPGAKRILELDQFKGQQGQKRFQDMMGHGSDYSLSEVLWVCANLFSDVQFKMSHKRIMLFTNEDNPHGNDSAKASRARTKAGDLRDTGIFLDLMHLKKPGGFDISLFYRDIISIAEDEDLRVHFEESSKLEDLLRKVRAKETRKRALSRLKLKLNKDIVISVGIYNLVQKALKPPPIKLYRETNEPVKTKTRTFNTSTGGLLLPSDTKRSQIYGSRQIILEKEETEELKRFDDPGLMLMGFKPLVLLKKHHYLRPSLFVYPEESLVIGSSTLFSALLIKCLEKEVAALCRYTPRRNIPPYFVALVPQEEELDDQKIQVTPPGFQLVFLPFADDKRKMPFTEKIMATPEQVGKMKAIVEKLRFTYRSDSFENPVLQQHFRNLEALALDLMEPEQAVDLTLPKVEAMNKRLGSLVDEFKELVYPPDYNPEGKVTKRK
Sequence of Ku70/80-dSAP (P13010 whole entry, chain 2 of 2): as the sequence (P13010 whole entry, chain 2 of 2, the tested form may be a part) above

B1: 153 bp free DNA (dsDNA)
DNA 1: ATCCTGGAGAATCCCGGTGCCGAGGCCGCTCAATTGGTCGTAGACAGCTCTAGCACCGCTTAAACGCACGTACGCGCTGTCCCCCGCGTTTTAACCGCCAAGGGGATTACTCCCTAGTCTCCAGGCACGTGTCAGATATATACATCCTGTGAT
DNA 2: ATCACAGGATGTATATATCTGACACGTGCCTGGAGACTAGGGAGTAATCCCCTTGGCGGTTAAAACGCGGGGGACAGCGCGTACGTGCGTTTAAGCGGTGCTAGAGCTGTCTACGACCAATTGAGCGGCCTCGGCACCGGGATTCTCCAGGAT
binds: all assays above
